Laboratory results: article PMC3821638, “Molecular Cloning and Characterization of the Calcineurin Subunit A from Plutella xylostella” (International Journal of Molecular Sciences, 2013)

Test system: T1, O=[N+]([O-])c1ccc(OP(=O)(O)O)cc1
T1 construct: catalytic (phosphatase) domain CNA1–341 (PxCNα), His-tagged, expressed in E. coli
Test: Michaelis-Menten kinetics of purified rPxCNα (Km)
Format: biochemical, Plutella xylostella
Conditions: Mn2+ ([…] MnCl2 in assay buffer)

Chain of Calcineurin subunit A (PxCNA), catalytic domain PxCNα (Plutella xylostella) (chain, as listed by the source): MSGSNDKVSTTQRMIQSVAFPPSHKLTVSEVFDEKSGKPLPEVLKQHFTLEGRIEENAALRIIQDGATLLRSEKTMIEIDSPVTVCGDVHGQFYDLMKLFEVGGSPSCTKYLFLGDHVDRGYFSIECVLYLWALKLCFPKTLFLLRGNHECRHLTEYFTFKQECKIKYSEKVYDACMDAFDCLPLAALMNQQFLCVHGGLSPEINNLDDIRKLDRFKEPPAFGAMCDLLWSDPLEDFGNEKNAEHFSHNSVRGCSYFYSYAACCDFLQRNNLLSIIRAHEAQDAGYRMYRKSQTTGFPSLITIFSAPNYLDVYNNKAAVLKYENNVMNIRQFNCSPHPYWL

Calcineurin subunit A (PxCNA), catalytic domain PxCNα (Plutella xylostella)
Km: 4.6 mM
